# Test results as given in patent publication US20200399712A1, “COMPOSITIONS AND METHODS FOR THE DIAGNOSIS AND DETECTION OF TUMORS AND CANCER PROGNOSIS” (priority 2018, published 2020).
# Marks after values point to notes of the source that are not given here.
# B1: BR E1-4: HPV-16 E1 region primer/probe set, SEQ ID NO: 37-39 (nucleic acid)
# DNA 1: ATGCACAATTGGCAGACACTA
# DNA 2: ACAATCCTTTACAATTTTTGCCTGT
# DNA 3: TAATGCAAGTGCCTTTCTAAAAAGT
# modifications: chemistry not given here
# B2: BR E6-1: HPV-16 E6 region (172-373 bp) primer/probe set, SEQ ID NO: 58-60 (nucleic acid)
# DNA 1: CAGTTACTGCGACGTGAGGT
# DNA 2: ACAGCATATGGATTCCCATCTC
# DNA 3: ACTTTGCTTTTCGGGATTTATGCATAGTA
# modifications: chemistry not given here
# B3: BR E1-6: HPV-16 E1 region primer/probe set, SEQ ID NO: 43-45 (nucleic acid)
# DNA 1: ATGCACAATTGGCAGACACTAA
# DNA 2: AATCCTTTACAATTTTTGCCTGTGA
# DNA 3: AGTAATGCAAGTGCCTTTCTAAAAAGTA
# modifications: chemistry not given here
# Experiments:
# [1] = test system: HPV-16 genome; experiment: qPCR sensitivity against HPV-16 copy number (known-copy HPV-16 DNA among 10 ng normal human DNA); settings: for reaction under 30 copies of HPV-16 genome: among 10 ng normal DNA, triplicate qPCR; for number of reactions against 10 HPV-16 copies / number of reactions under 30 HPV-16 copies: samples tested 3 times, 10 ng DNA from healthy individual
# Source text: All samples were run in triplicates.
# To seek the most promising primer-probe set in the viewpoint of sensitivity, Applicants evaluated the sensitivity analysis for these candidate primer-probe sets. […] Therefore, the sensitivity of E6 (FIG. 3A) and E7 (FIG. 3B) was also 30 copies. […] The candidate primer-probe sets were the “Min-4” (FIG. 3C), “Min-5” (FIG. 3D), “Min-6” (FIG. 3E), “Max-10” (FIG. 3F), “E6-11” (FIG. 3G), “E6-13” (FIG. 3H), respectively.
# In addition, Applicants performed sensitivity analysis to identify the most sensitive primer/probe set from among the candidate sets.
# To validate the function of primer/probe sets, Applicants calculated the slope of delta Rn against cycle threshold for HPV-16 copy number detection from defined HPV copy number DNA derived from CaSki cell line.
# [2] = test system: HPV-16; experiment: qPCR sensitivity against HPV-HNSCC tumor samples diluted among 10 ng normal human DNA; settings: for sensitivity under 100 cells / sensitivity under single cells / sensitivity under 10 cells: 32 HPV-HNSCC tumor samples; for sensitivity under single cells: 6.6 pg DNA; for sensitivity under 10 cells: 66 pg DNA; for Sensitivity, 1 cell / Sensitivity, 3 cells / Sensitivity, 10 cells / Sensitivity, 30 cells / Sensitivity, 100 cells: tumor DNA dilution, fraction of 32 samples
# Procedure: Quantitative real-time polymerase chain reaction (qRT-PCR) was used to examine the threshold in each experiment. qRT-PCR was performed using Quant Studio 6 Flex Real-Time PCR System (Thermo Fisher Scientific). All samples were run in triplicates. HPV-16 viral amplicon copy number estimations were developed using the CaSki cell line. After amplification of the amplicon by PCR, DNA concentration was calculated by weight NanoDrop®, then converted to DNA copy number by calculation based on the molecular weight of the double stranded amplicon. […] In the other 32 HPV-HNSCC cohort, Applicants diluted the tumor sample to 990 pg, 198 pg, 99 pg, 39.6 pg, 7.9 pg, 3.2 pg, and 1.6 pg of amount tumor weight, (correspond to 150, 30, 15, 6, 1.2, 0.6, and 0.3 cells: assumption that 1 tumor cell have 6.6 pg DNA (=3*10^9 (human DNA genome bp)*2 (diploid)*1.67*10^(−24) g (weight/Dalton))) combined with 10 ng normal leukocyte human DNA and compare the threshold of each primer-probe sets.
# In this regard, Applicants investigated the other 32 HPV-HNSCC tumor samples. From the assumption that 1 cell tumor DNA contain 6.6 pg DNA, Applicants made the dilution series by DNA derived from normal lymphocyte as described and decide the threshold for each primer-probe set.
# Furthermore, to determine whether these designed primer/probe sets also have a high sensitivity in a separate cohort, Applicants performed PCR in a validation cohort of 32 additional primary tumor samples with validated presence of HPV-16. Applicants prepared serial of dilutions of tumor DNA in normal lymphocyte DNA from non-cancer individuals and determined the threshold for each primer/probe set and defined amplification thresholds expressed in number of tumor cells for each sample (Table 5).
molecule,measurement,setting,value
B1,reaction under 30 copies of HPV-16 genome,[1],consistently amplified
same,reaction under 30 copies of HPV-16 genome,[1]; listed as Min-4,react consistently
same,number of reactions against 10 HPV-16 copies,[1],2 reactions
same,number of reactions under 30 HPV-16 copies,[1],3 reactions
same,sensitivity under 100 cells,[2],93.8%
same,sensitivity under single cells,[2],21.9%
same,sensitivity under 10 cells,[2],78.1%
same,Threshold of tumor cell numbers for HPV-16 detection,[2]; Sample # 1,150.0 tumor cells
same,Threshold of tumor cell numbers for HPV-16 detection,[2]; Sample # 2,150.0 tumor cells
same,Threshold of tumor cell numbers for HPV-16 detection,[2]; Sample # 3,1.2 tumor cells
same,Threshold of tumor cell numbers for HPV-16 detection,[2]; Sample # 4,6.0 tumor cells
same,Threshold of tumor cell numbers for HPV-16 detection,[2]; Sample # 5,30.0 tumor cells
same,Threshold of tumor cell numbers for HPV-16 detection,[2]; Sample # 6,30.0 tumor cells
same,Threshold of tumor cell numbers for HPV-16 detection,[2]; Sample # 7,30.0 tumor cells
same,Threshold of tumor cell numbers for HPV-16 detection,[2]; Sample # 8,50.0 tumor cells
same,Threshold of tumor cell numbers for HPV-16 detection,[2]; Sample # 9,1.2 tumor cells
same,Threshold of tumor cell numbers for HPV-16 detection,[2]; Sample # 10,1.2 tumor cells
same,Threshold of tumor cell numbers for HPV-16 detection,[2]; Sample # 11,1.2 tumor cells
same,Threshold of tumor cell numbers for HPV-16 detection,[2]; Sample # 12,3.0 tumor cells
same,Threshold of tumor cell numbers for HPV-16 detection,[2]; Sample # 13,6.0 tumor cells
same,Threshold of tumor cell numbers for HPV-16 detection,[2]; Sample # 14,6.0 tumor cells
same,Threshold of tumor cell numbers for HPV-16 detection,[2]; Sample # 15,6.0 tumor cells
same,Threshold of tumor cell numbers for HPV-16 detection,[2]; Sample # 16,6.0 tumor cells
same,Threshold of tumor cell numbers for HPV-16 detection,[2]; Sample # 17,6.0 tumor cells
same,Threshold of tumor cell numbers for HPV-16 detection,[2]; Sample # 18,1.2 tumor cells
same,Threshold of tumor cell numbers for HPV-16 detection,[2]; Sample # 19,0.3 tumor cells
same,Threshold of tumor cell numbers for HPV-16 detection,[2]; Sample # 20,1.2 tumor cells
same,Threshold of tumor cell numbers for HPV-16 detection,[2]; Sample # 21,0.6 tumor cells
same,Threshold of tumor cell numbers for HPV-16 detection,[2]; Sample # 22,0.3 tumor cells
same,Threshold of tumor cell numbers for HPV-16 detection,[2]; Sample # 23,1.2 tumor cells
same,Threshold of tumor cell numbers for HPV-16 detection,[2]; Sample # 24,0.6 tumor cells
same,Threshold of tumor cell numbers for HPV-16 detection,[2]; Sample # 25,1.2 tumor cells
same,Threshold of tumor cell numbers for HPV-16 detection,[2]; Sample # 26,0.6 tumor cells
same,Threshold of tumor cell numbers for HPV-16 detection,[2]; Sample # 27,0.6 tumor cells
same,Threshold of tumor cell numbers for HPV-16 detection,[2]; Sample # 28,1.0 tumor cells
same,Threshold of tumor cell numbers for HPV-16 detection,[2]; Sample # 29,1.0 tumor cells
same,Threshold of tumor cell numbers for HPV-16 detection,[2]; Sample # 30,30.0 tumor cells
same,Threshold of tumor cell numbers for HPV-16 detection,[2]; Sample # 31,0.6 tumor cells
same,Threshold of tumor cell numbers for HPV-16 detection,[2]; Sample # 32,9.0 tumor cells
same,"Sensitivity, 1 cell",[2],0.219
same,"Sensitivity, 3 cells",[2],0.531*
same,"Sensitivity, 10 cells",[2],0.781*
same,"Sensitivity, 30 cells",[2],0.875
same,"Sensitivity, 100 cells",[2],0.938
B2,reaction under 30 copies of HPV-16 genome,[1],consistently amplified
same,reaction under 30 copies of HPV-16 genome,[1]; listed as E6-11,react consistently
same,number of reactions against 10 HPV-16 copies,[1],one
same,number of reactions under 30 HPV-16 copies,[1],3 reactions
same,sensitivity under 100 cells,[2],87.5%
same,sensitivity under single cells,[2],3.1%
same,sensitivity under 10 cells,[2],46.9%
same,Threshold of tumor cell numbers for HPV-16 detection,[2]; Sample # 1,150.0 tumor cells
same,Threshold of tumor cell numbers for HPV-16 detection,[2]; Sample # 2,30.0 tumor cells
same,Threshold of tumor cell numbers for HPV-16 detection,[2]; Sample # 3,150.0 tumor cells
same,Threshold of tumor cell numbers for HPV-16 detection,[2]; Sample # 4,60.0 tumor cells
same,Threshold of tumor cell numbers for HPV-16 detection,[2]; Sample # 5,30.0 tumor cells
same,Threshold of tumor cell numbers for HPV-16 detection,[2]; Sample # 6,60.0 tumor cells
same,Threshold of tumor cell numbers for HPV-16 detection,[2]; Sample # 7,30.0 tumor cells
same,Threshold of tumor cell numbers for HPV-16 detection,[2]; Sample # 8,150.0 tumor cells
same,Threshold of tumor cell numbers for HPV-16 detection,[2]; Sample # 9,30.0 tumor cells
same,Threshold of tumor cell numbers for HPV-16 detection,[2]; Sample # 10,30.0 tumor cells
same,Threshold of tumor cell numbers for HPV-16 detection,[2]; Sample # 11,30.0 tumor cells
same,Threshold of tumor cell numbers for HPV-16 detection,[2]; Sample # 12,15.0 tumor cells
same,Threshold of tumor cell numbers for HPV-16 detection,[2]; Sample # 13,60.0 tumor cells
same,Threshold of tumor cell numbers for HPV-16 detection,[2]; Sample # 14,60.0 tumor cells
same,Threshold of tumor cell numbers for HPV-16 detection,[2]; Sample # 15,30.0 tumor cells
same,Threshold of tumor cell numbers for HPV-16 detection,[2]; Sample # 16,6.0 tumor cells
same,Threshold of tumor cell numbers for HPV-16 detection,[2]; Sample # 17,6.0 tumor cells
same,Threshold of tumor cell numbers for HPV-16 detection,[2]; Sample # 18,1.2 tumor cells
same,Threshold of tumor cell numbers for HPV-16 detection,[2]; Sample # 19,6.0 tumor cells
same,Threshold of tumor cell numbers for HPV-16 detection,[2]; Sample # 20,1.2 tumor cells
same,Threshold of tumor cell numbers for HPV-16 detection,[2]; Sample # 21,1.2 tumor cells
same,Threshold of tumor cell numbers for HPV-16 detection,[2]; Sample # 22,6.0 tumor cells
same,Threshold of tumor cell numbers for HPV-16 detection,[2]; Sample # 23,1.2 tumor cells
same,Threshold of tumor cell numbers for HPV-16 detection,[2]; Sample # 24,1.2 tumor cells
same,Threshold of tumor cell numbers for HPV-16 detection,[2]; Sample # 25,1.2 tumor cells
same,Threshold of tumor cell numbers for HPV-16 detection,[2]; Sample # 26,1.2 tumor cells
same,Threshold of tumor cell numbers for HPV-16 detection,[2]; Sample # 27,1.0 tumor cells
same,Threshold of tumor cell numbers for HPV-16 detection,[2]; Sample # 28,1.0 tumor cells
same,Threshold of tumor cell numbers for HPV-16 detection,[2]; Sample # 29,1.0 tumor cells
same,Threshold of tumor cell numbers for HPV-16 detection,[2]; Sample # 30,150.0 tumor cells
same,Threshold of tumor cell numbers for HPV-16 detection,[2]; Sample # 31,0.6 tumor cells
same,Threshold of tumor cell numbers for HPV-16 detection,[2]; Sample # 32,15.0 tumor cells
same,"Sensitivity, 1 cell",[2],0.031
same,"Sensitivity, 3 cells",[2],0.344
same,"Sensitivity, 10 cells",[2],0.469
same,"Sensitivity, 30 cells",[2],0.750
same,"Sensitivity, 100 cells",[2],0.875
B3,reaction under 30 copies of HPV-16 genome,[1],consistently amplified
same,reaction under 30 copies of HPV-16 genome,[1]; listed as Min-6,react consistently
same,number of reactions against 10 HPV-16 copies,[1],2 reactions
same,number of reactions under 30 HPV-16 copies,[1],3 reactions
same,sensitivity under 100 cells,[2],87.5%
same,sensitivity under single cells,[2],15.6%
same,sensitivity under 10 cells,[2],62.5%
same,Threshold of tumor cell numbers for HPV-16 detection,[2]; Sample # 1,150.0 tumor cells
same,Threshold of tumor cell numbers for HPV-16 detection,[2]; Sample # 2,150.0 tumor cells
same,Threshold of tumor cell numbers for HPV-16 detection,[2]; Sample # 3,30.0 tumor cells
same,Threshold of tumor cell numbers for HPV-16 detection,[2]; Sample # 4,30.0 tumor cells
same,Threshold of tumor cell numbers for HPV-16 detection,[2]; Sample # 5,30.0 tumor cells
same,Threshold of tumor cell numbers for HPV-16 detection,[2]; Sample # 6,50.0 tumor cells
same,Threshold of tumor cell numbers for HPV-16 detection,[2]; Sample # 7,150.0 tumor cells
same,Threshold of tumor cell numbers for HPV-16 detection,[2]; Sample # 8,15.0 tumor cells
same,Threshold of tumor cell numbers for HPV-16 detection,[2]; Sample # 9,30.0 tumor cells
same,Threshold of tumor cell numbers for HPV-16 detection,[2]; Sample # 10,6.0 tumor cells
same,Threshold of tumor cell numbers for HPV-16 detection,[2]; Sample # 11,6.0 tumor cells
same,Threshold of tumor cell numbers for HPV-16 detection,[2]; Sample # 12,30.0 tumor cells
same,Threshold of tumor cell numbers for HPV-16 detection,[2]; Sample # 13,6.0 tumor cells
same,Threshold of tumor cell numbers for HPV-16 detection,[2]; Sample # 14,6.0 tumor cells
same,Threshold of tumor cell numbers for HPV-16 detection,[2]; Sample # 15,6.0 tumor cells
same,Threshold of tumor cell numbers for HPV-16 detection,[2]; Sample # 16,30.0 tumor cells
same,Threshold of tumor cell numbers for HPV-16 detection,[2]; Sample # 17,6.0 tumor cells
same,Threshold of tumor cell numbers for HPV-16 detection,[2]; Sample # 18,1.2 tumor cells
same,Threshold of tumor cell numbers for HPV-16 detection,[2]; Sample # 19,1.2 tumor cells
same,Threshold of tumor cell numbers for HPV-16 detection,[2]; Sample # 20,6.0 tumor cells
same,Threshold of tumor cell numbers for HPV-16 detection,[2]; Sample # 21,1.2 tumor cells
same,Threshold of tumor cell numbers for HPV-16 detection,[2]; Sample # 22,0.3 tumor cells
same,Threshold of tumor cell numbers for HPV-16 detection,[2]; Sample # 23,1.2 tumor cells
same,Threshold of tumor cell numbers for HPV-16 detection,[2]; Sample # 24,1.2 tumor cells
same,Threshold of tumor cell numbers for HPV-16 detection,[2]; Sample # 25,1.2 tumor cells
same,Threshold of tumor cell numbers for HPV-16 detection,[2]; Sample # 26,0.3 tumor cells
same,Threshold of tumor cell numbers for HPV-16 detection,[2]; Sample # 27,0.6 tumor cells
same,Threshold of tumor cell numbers for HPV-16 detection,[2]; Sample # 28,0.6 tumor cells
same,Threshold of tumor cell numbers for HPV-16 detection,[2]; Sample # 29,3.0 tumor cells
same,Threshold of tumor cell numbers for HPV-16 detection,[2]; Sample # 30,150.0 tumor cells
same,Threshold of tumor cell numbers for HPV-16 detection,[2]; Sample # 31,0.6 tumor cells
same,Threshold of tumor cell numbers for HPV-16 detection,[2]; Sample # 32,9.0 tumor cells
same,"Sensitivity, 1 cell",[2],0.156
same,"Sensitivity, 3 cells",[2],0.344
same,"Sensitivity, 10 cells",[2],0.625
same,"Sensitivity, 30 cells",[2],0.844
same,"Sensitivity, 100 cells",[2],0.875
